One block for each binder: values may come before it.
Columns and labels:
[1] = target: T1, amphyphisin SH3 (AMPH_HUMAN), P49418; assay: SPOT array
T1 chain: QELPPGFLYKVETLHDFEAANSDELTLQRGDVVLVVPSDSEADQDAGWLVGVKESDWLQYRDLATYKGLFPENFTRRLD

[2] = target: endophilin SH3 (SH3G2_HUMAN), Q99962; assay: SPOT array

B1: Q12789 1979-1992 (peptide)
chain: SVSFIGRPWRVVDG
normalised SPOT signal, Boehringer light units (BLU); mean over the file's lines of this peptide [1]: 112
normalised SPOT signal, Boehringer light units (BLU); mean over the file's lines of this peptide [2]: 78.1

B4: O00124 234-247 (peptide)
chain: STSFPRRPLAVEGG
normalised SPOT signal, Boehringer light units (BLU); mean over the file's lines of this peptide [1]: 53
normalised SPOT signal, Boehringer light units (BLU); mean over the file's lines of this peptide [2]: 132

B5: Q9BY07 808-821 (peptide)
chain: SVIKPPRPDRGWFV
normalised SPOT signal, Boehringer light units (BLU); mean over the file's lines of this peptide [1]: 1520
normalised SPOT signal, Boehringer light units (BLU); mean over the file's lines of this peptide [2]: 4940

B6: Q16456 13-26 (peptide)
chain: SDTSPRRPLRPTPN
normalised SPOT signal, Boehringer light units (BLU); mean over the file's lines of this peptide [1]: 3520
normalised SPOT signal, Boehringer light units (BLU); mean over the file's lines of this peptide [2]: 1300

B8: Q9NR59 803-817 (peptide)
chain: SSGPPPKPPVSSGS
normalised SPOT signal, Boehringer light units (BLU); mean over the file's lines of this peptide [1]: 81.4
normalised SPOT signal, Boehringer light units (BLU); mean over the file's lines of this peptide [2]: 122

B9: O75179 569-582 (peptide)
chain: SVNHIKRPHSVPSS
normalised SPOT signal, Boehringer light units (BLU); mean over the file's lines of this peptide [1]: 16.7
normalised SPOT signal, Boehringer light units (BLU); mean over the file's lines of this peptide [2]: 133

B11: P48200 444-457 (peptide)
chain: SVSGPKRPQDRVAV
normalised SPOT signal, Boehringer light units (BLU); mean over the file's lines of this peptide [1]: 38.9
normalised SPOT signal, Boehringer light units (BLU); mean over the file's lines of this peptide [2]: 67.2

B12: O94820 555-568 (peptide)
chain: STQSLKRPGTSQAG
normalised SPOT signal, Boehringer light units (BLU); mean over the file's lines of this peptide [1]: 42
normalised SPOT signal, Boehringer light units (BLU); mean over the file's lines of this peptide [2]: 5.6

B13: Q8WWY6 31-44 (peptide)
chain: SSYTFKRPVTRITP
normalised SPOT signal, Boehringer light units (BLU); mean over the file's lines of this peptide [1]: 18.6
normalised SPOT signal, Boehringer light units (BLU); mean over the file's lines of this peptide [2]: 89.6

B14: Q9H6D1 6-19 (peptide)
chain: SSEEPRRPLRSDMV
normalised SPOT signal, Boehringer light units (BLU); mean over the file's lines of this peptide [1]: 1890
normalised SPOT signal, Boehringer light units (BLU); mean over the file's lines of this peptide [2]: 110

B15: Q9H875 7-20 (peptide)
chain: SSVRPPRPKKEPQT
normalised SPOT signal, Boehringer light units (BLU); mean over the file's lines of this peptide [1]: 2350
normalised SPOT signal, Boehringer light units (BLU); mean over the file's lines of this peptide [2]: 1060

B16: Q9ULL4 1157-1170 (peptide)
chain: SREGPARPYRLKPG
normalised SPOT signal, Boehringer light units (BLU); mean over the file's lines of this peptide [1]: 1270
normalised SPOT signal, Boehringer light units (BLU); mean over the file's lines of this peptide [2]: 1200

B19: Q9Y2W3 232-245 (peptide)
chain: SSGILKRPQTLAIP
normalised SPOT signal, Boehringer light units (BLU); mean over the file's lines of this peptide [1]: 71.5
normalised SPOT signal, Boehringer light units (BLU); mean over the file's lines of this peptide [2]: 10.4

B20: P30670 54-67 (peptide)
chain: SSTNPFRPQKVSSF
normalised SPOT signal, Boehringer light units (BLU); mean over the file's lines of this peptide [1]: 77.5
normalised SPOT signal, Boehringer light units (BLU); mean over the file's lines of this peptide [2]: 1350

B21: Q9UI27 293-306 (peptide)
chain: SSTFLQRPIRKPSK
normalised SPOT signal, Boehringer light units (BLU); mean over the file's lines of this peptide [1]: 4730
normalised SPOT signal, Boehringer light units (BLU); mean over the file's lines of this peptide [2]: 341

B23: Q8TEB6 103-117 (peptide)
chain: SSHSPYRPPTNYRN
normalised SPOT signal, Boehringer light units (BLU); mean over the file's lines of this peptide [1]: 51.9
normalised SPOT signal, Boehringer light units (BLU); mean over the file's lines of this peptide [2]: 681

B24: Q14160 1547-1560 (peptide)
chain: SSRRPVRPGRRGLG
normalised SPOT signal, Boehringer light units (BLU); mean over the file's lines of this peptide [1]: 7270
normalised SPOT signal, Boehringer light units (BLU); mean over the file's lines of this peptide [2]: 1850

B26: O60585 365-379 (peptide)
chain: SRSPPKKPPKRTSS
normalised SPOT signal, Boehringer light units (BLU); mean over the file's lines of this peptide [1]: 236
normalised SPOT signal, Boehringer light units (BLU); mean over the file's lines of this peptide [2]: 2210

B27: Q9Y256 12-26 (peptide)
chain: SVSRPERPPESAAL
normalised SPOT signal, Boehringer light units (BLU); mean over the file's lines of this peptide [1]: 85.5
normalised SPOT signal, Boehringer light units (BLU); mean over the file's lines of this peptide [2]: 102

B29: P12111 1320-1333 (peptide)
chain: SRNIFKRPLGSRIE
normalised SPOT signal, Boehringer light units (BLU); mean over the file's lines of this peptide [1]: 30.4
normalised SPOT signal, Boehringer light units (BLU); mean over the file's lines of this peptide [2]: 0.9

B30: Q05397 355-368 (peptide)
chain: SQSFIIRPQKEGER
normalised SPOT signal, Boehringer light units (BLU); mean over the file's lines of this peptide [1]: 118
normalised SPOT signal, Boehringer light units (BLU); mean over the file's lines of this peptide [2]: 87.4

B32: Q9UMX9 24-37 (peptide)
chain: SVEPPKRPTSRLIM
normalised SPOT signal, Boehringer light units (BLU); mean over the file's lines of this peptide [1]: 36
normalised SPOT signal, Boehringer light units (BLU); mean over the file's lines of this peptide [2]: 480

B36: P39880 1446-1459 (peptide)
chain: SSSAPRRPSSLQSL
normalised SPOT signal, Boehringer light units (BLU); mean over the file's lines of this peptide [1]: 37.2
normalised SPOT signal, Boehringer light units (BLU); mean over the file's lines of this peptide [2]: 1050

B39: Q16099 865-879 (peptide)
chain: AAVPPPRPPIPEER
normalised SPOT signal, Boehringer light units (BLU); mean over the file's lines of this peptide [1]: 419
normalised SPOT signal, Boehringer light units (BLU); mean over the file's lines of this peptide [2]: 4290

B40: Q13629 53-66 (peptide)
chain: SRLHFGRPRRADYL
normalised SPOT signal, Boehringer light units (BLU); mean over the file's lines of this peptide [1]: 842
normalised SPOT signal, Boehringer light units (BLU); mean over the file's lines of this peptide [2]: 202

B41: P51172 134-147 (peptide)
chain: SDGNPRRPSPVLRH
normalised SPOT signal, Boehringer light units (BLU); mean over the file's lines of this peptide [1]: 60.5
normalised SPOT signal, Boehringer light units (BLU); mean over the file's lines of this peptide [2]: 577

B42: Q9Y6S1 96-109 (peptide)
chain: SSDWLRRPLGEDNQ
normalised SPOT signal, Boehringer light units (BLU); mean over the file's lines of this peptide [1]: 43.6
normalised SPOT signal, Boehringer light units (BLU); mean over the file's lines of this peptide [2]: 37.4

The next lines start with the values.

normalised SPOT signal, Boehringer light units (BLU); mean over the file's lines of this peptide [1]: 35.4
normalised SPOT signal, Boehringer light units (BLU); mean over the file's lines of this peptide [2]: 189
B2: Q96AA8 422-435 (peptide)
chain: SSKPIKRPVLDPFI

normalised SPOT signal, Boehringer light units (BLU); mean over the file's lines of this peptide [1]: 4960
normalised SPOT signal, Boehringer light units (BLU); mean over the file's lines of this peptide [2]: 3200
B3: Q9HBU5 808-821 (peptide)
chain: SVIKPTRPDRGWFV

normalised SPOT signal, Boehringer light units (BLU); mean over the file's lines of this peptide [1]: 214
normalised SPOT signal, Boehringer light units (BLU); mean over the file's lines of this peptide [2]: 185
B7: Q9H7S7 483-496 (peptide)
chain: SRLTLLRPEKDGEA

normalised SPOT signal, Boehringer light units (BLU); mean over the file's lines of this peptide [1]: 31.8
normalised SPOT signal, Boehringer light units (BLU); mean over the file's lines of this peptide [2]: 7.4
B10: O60825 472-485 (peptide)
chain: SSNTIRRPRNYSVG

normalised SPOT signal, Boehringer light units (BLU); mean over the file's lines of this peptide [1]: 1640
normalised SPOT signal, Boehringer light units (BLU); mean over the file's lines of this peptide [2]: 195
B17: Q9Y5M0 381-394 (peptide)
chain: SSPLLKRPVRTQAV

normalised SPOT signal, Boehringer light units (BLU); mean over the file's lines of this peptide [1]: 20600
normalised SPOT signal, Boehringer light units (BLU); mean over the file's lines of this peptide [2]: 10200
B18: Q96DR3 69-83 (peptide)
chain: SRGPPRRPPRSVKL

normalised SPOT signal, Boehringer light units (BLU); mean over the file's lines of this peptide [1]: 60.1
normalised SPOT signal, Boehringer light units (BLU); mean over the file's lines of this peptide [2]: 33.5
B22: Q13112 270-283 (peptide)
chain: SRKNLKRPIAHLPS

normalised SPOT signal, Boehringer light units (BLU); mean over the file's lines of this peptide [1]: 56.1
normalised SPOT signal, Boehringer light units (BLU); mean over the file's lines of this peptide [2]: 27.3
B25: Q9H0N0 213-227 (peptide)
chain: SSTLPQKPPYSFID

normalised SPOT signal, Boehringer light units (BLU); mean over the file's lines of this peptide [1]: 24.3
normalised SPOT signal, Boehringer light units (BLU); mean over the file's lines of this peptide [2]: 21.2
B28: P78325 741-754 (peptide)
chain: SSVALKRPPPAPPV

normalised SPOT signal, Boehringer light units (BLU); mean over the file's lines of this peptide [1]: 614
normalised SPOT signal, Boehringer light units (BLU); mean over the file's lines of this peptide [2]: 181
B31: Q9P2A7 954-967 (peptide)
chain: SSPEPPRPAKRPRR

normalised SPOT signal, Boehringer light units (BLU); mean over the file's lines of this peptide [1]: 117
normalised SPOT signal, Boehringer light units (BLU); mean over the file's lines of this peptide [2]: 54.6
B33: Q9NQV6 563-576 (peptide)
chain: SDKAFSRPDKLRLH

normalised SPOT signal, Boehringer light units (BLU); mean over the file's lines of this peptide [1]: 51.9
normalised SPOT signal, Boehringer light units (BLU); mean over the file's lines of this peptide [2]: 619
B34: O75962 1703-1716 (peptide)
chain: SSPGPKRPGNTLRK

normalised SPOT signal, Boehringer light units (BLU); mean over the file's lines of this peptide [1]: 53.4
normalised SPOT signal, Boehringer light units (BLU); mean over the file's lines of this peptide [2]: 72.8
B35: O43147 533-547 (peptide)
chain: SVIPPDRPPGASAG

normalised SPOT signal, Boehringer light units (BLU); mean over the file's lines of this peptide [1]: 61.4
normalised SPOT signal, Boehringer light units (BLU); mean over the file's lines of this peptide [2]: 1850
B37: Q9Y6T1 410-424 (peptide)
chain: STAGPLRPPPPGAG

normalised SPOT signal, Boehringer light units (BLU); mean over the file's lines of this peptide [1]: 119
normalised SPOT signal, Boehringer light units (BLU); mean over the file's lines of this peptide [2]: 109
B38: O94930 369-382 (peptide)
chain: SSRDLSRPPKKGEL

— paper PMC314469, “Protein Interaction Networks by Proteome Peptide Scanning” (PLoS Biology, 2004)
